Assay results from the Immune Epitope Database (IEDB).

Tests used:
[1] = target: HLA-A*01:01; test: IEDB peptide-MHC binding, purified MHC/competitive/fluorescence; ≥ and ≤ were set here for values at or beyond the usual limits of such assays; details: source organism: Homo sapiens
[2] = target: HLA-A*02:01; test: as above; details: source organism: Homo sapiens
[3] = target: HLA-A*03:01; test: as above; details: source organism: Homo sapiens
[4] = target: HLA-A*11:01; test: as above; details: source organism: Homo sapiens
[5] = target: HLA-A*24:02; test: as above; details: source organism: Homo sapiens
[6] = target: HLA-A*25:01; test: as above; details: source organism: Homo sapiens
[7] = target: HLA-A*29:02; test: as above; details: source organism: Homo sapiens
[8] = target: HLA-A*31:01; test: as above; details: source organism: Homo sapiens
[9] = target: HLA-A*68:02; test: as above; details: source organism: Homo sapiens
[10] = target: HLA-B*07:02; test: as above; details: source organism: Homo sapiens
[11] = target: HLA-B*08:01; test: as above; details: source organism: Homo sapiens
[12] = target: HLA-B*14:02; test: as above; details: source organism: Homo sapiens
[13] = target: HLA-B*18:01; test: as above; details: source organism: Homo sapiens
[14] = target: HLA-B*35:01; test: as above; details: source organism: Homo sapiens
[15] = target: HLA-B*37:01; test: as above; details: source organism: Homo sapiens
[16] = target: HLA-B*40:02; test: as above; details: source organism: Homo sapiens
[17] = target: HLA-B*44:03; test: as above; details: source organism: Homo sapiens
[18] = target: HLA-B*51:01; test: as above; details: source organism: Homo sapiens
[19] = target: HLA-B*53:01; test: as above; details: source organism: Homo sapiens
[20] = target: HLA-B*58:01; test: as above; details: source organism: Homo sapiens
[21] = target: HLA-C*14:02; test: IEDB peptide-MHC binding, purified MHC/direct/fluorescence; filed as Kd, often an IC50 or EC50 that approximates it; ≥ and ≤ were set here for values at or beyond the usual limits of such assays; details: source organism: Homo sapiens
[22] = target: HLA-B*35:01; test: IEDB peptide-MHC binding, cellular MHC/competitive/fluorescence; ≥ and ≤ were set here for values at or beyond the usual limits of such assays; details: source organism: Influenza A virus H3N2
[23] = target: HLA-A*03:01; test: IEDB peptide-MHC binding, purified MHC/direct/fluorescence; filed as Kd, often an IC50 or EC50 that approximates it; ≥ and ≤ were set here for values at or beyond the usual limits of such assays; details: source organism: Coxiella burnetii Q321
[24] = target: HLA-A*26:01; test: as above; details: source organism: Coxiella burnetii Q321
[25] = target: HLA-A*29:02; test: as above; details: source organism: Coxiella burnetii Q321
[26] = target: HLA-A*69:01; test: as above; details: source organism: Coxiella burnetii Q321
[27] = target: HLA-B*18:01; test: as above; details: source organism: Coxiella burnetii Q321
[28] = target: HLA-B*57:01; test: as above; details: source organism: Coxiella burnetii Q321
[29] = target: HLA-C*07:02; test: as above; details: source organism: Coxiella burnetii RSA 493
[30] = target: HLA-B*15:42; test: IEDB peptide-MHC binding, purified MHC/competitive/fluorescence; filed as Kd, often an IC50 or EC50 that approximates it; ≥ and ≤ were set here for values at or beyond the usual limits of such assays
[31] = target: HLA-B*27:20; test: as above
[32] = target: HLA-B*45:06; test: as above
[33] = target: HLA-B*83:01; test: as above
[34] = target: HLA-C*06:02; test: as above; details: source organism: Coxiella burnetii RSA 493
[35] = target: HLA-C*14:02; test: as above; details: source organism: Coxiella burnetii RSA 493
[36] = target: HLA-A*02:01; test: IEDB peptide-MHC binding, cellular MHC/competitive/fluorescence; ≥ and ≤ were set here for values at or beyond the usual limits of such assays; details: source organism: Measles morbillivirus
[37] = target: HLA-A*24:02; test: IEDB peptide-MHC binding, purified MHC/competitive/radioactivity; ≥ and ≤ were set here for values at or beyond the usual limits of such assays; details: source organism: Homo sapiens
[38] = target: HLA-B*73:01; test: IEDB peptide-MHC binding, purified MHC/competitive/fluorescence; filed as Kd, often an IC50 or EC50 that approximates it; ≥ and ≤ were set here for values at or beyond the usual limits of such assays; details: source organism: Vibrio cholerae V52
[39] = target: HLA-C*08:02; test: IEDB peptide-MHC binding, purified MHC/direct/fluorescence; filed as Kd, often an IC50 or EC50 that approximates it; ≥ and ≤ were set here for values at or beyond the usual limits of such assays; details: source organism: Burkholderia mallei SAVP1
[40] = target: HLA-A*02:01; test: IEDB peptide-MHC binding, purified MHC/competitive/fluorescence; filed as Kd, often an IC50 or EC50 that approximates it; ≥ and ≤ were set here for values at or beyond the usual limits of such assays; details: source organism: Burkholderia mallei SAVP1
[41] = target: HLA-A*02:11; test: as above; details: source organism: Burkholderia mallei SAVP1
[42] = target: HLA-A*03:01; test: as above; details: source organism: Burkholderia mallei SAVP1
[43] = target: HLA-A*26:01; test: as above; details: source organism: Burkholderia mallei SAVP1
[44] = target: HLA-A*29:02; test: as above; details: source organism: Burkholderia mallei SAVP1
[45] = target: HLA-A*68:02; test: as above; details: source organism: Burkholderia mallei SAVP1
[46] = target: HLA-A*69:01; test: as above; details: source organism: Burkholderia mallei SAVP1
[47] = target: HLA-B*15:17; test: as above; details: source organism: Burkholderia mallei SAVP1
[48] = target: HLA-B*18:01; test: as above; details: source organism: Burkholderia mallei SAVP1
[49] = target: HLA-B*27:03; test: as above; details: source organism: Burkholderia mallei SAVP1
[50] = target: HLA-B*46:01; test: as above; details: source organism: Burkholderia mallei SAVP1
[51] = target: HLA-B*51:01; test: as above; details: source organism: Burkholderia mallei SAVP1
[52] = target: HLA-B*57:01; test: as above; details: source organism: Burkholderia mallei SAVP1
[53] = target: HLA-C*01:02; test: IEDB peptide-MHC binding, purified MHC/direct/fluorescence; filed as Kd, often an IC50 or EC50 that approximates it; ≥ and ≤ were set here for values at or beyond the usual limits of such assays; details: source organism: Homo sapiens
[54] = target: HLA-C*04:01; test: IEDB peptide-MHC binding, purified MHC/competitive/fluorescence; filed as Kd, often an IC50 or EC50 that approximates it; ≥ and ≤ were set here for values at or beyond the usual limits of such assays; details: source organism: Yersinia pestis CO92
[55] = target: HLA-A*02:01; test: IEDB peptide-MHC binding, binding assay; filed as Kd, often an IC50 or EC50 that approximates it; ≥ and ≤ were set here for values at or beyond the usual limits of such assays; details: source organism: Severe acute respiratory syndrome coronavirus 2 Indonesia/JI-ITD-12202V/2020
[56] = source organism: Coxiella burnetii RSA 493
[57] = source organism: Yersinia pestis CO92

SLMASSPTSI
IC50 [1]: ≥ 20000 nM
IC50 [2]: 20.8 nM
IC50 [3]: ≥ 20000 nM
IC50 [4]: ≥ 20000 nM
IC50 [5]: 1240 nM
IC50 [6]: ≥ 20000 nM
IC50 [7]: 1210 nM
IC50 [8]: ≥ 20000 nM
IC50 [9]: 1010 nM
IC50 [10]: 2510 nM
IC50 [11]: ≥ 20000 nM
IC50 [12]: ≥ 20000 nM
IC50 [13]: ≥ 20000 nM
IC50 [14]: ≥ 20000 nM
IC50 [15]: ≥ 20000 nM
IC50 [16]: ≥ 20000 nM
IC50 [17]: ≥ 20000 nM
IC50 [18]: ≥ 20000 nM
IC50 [19]: ≥ 20000 nM
IC50 [20]: ≥ 20000 nM
Kd [21]: 1120 nM

LPFDKPTIM
IC50 [22]: 1600 nM

YRATYSMAL
Kd [23]: ≥ 20000 nM
Kd [24]: ≥ 20000 nM
Kd [25]: ≥ 20000 nM
Kd [26]: ≥ 20000 nM
Kd [27]: ≥ 20000 nM
Kd [28]: ≥ 20000 nM
Kd [29]: 80 nM
Kd [30, 56]: ≥ 5000 nM
Kd [31, 56]: 0.7 nM
Kd [32, 56]: ≥ 5000 nM
Kd [33, 56]: ≥ 5000 nM
Kd [34]: 6.1 nM
Kd [35]: 119 nM

QLPEATFMV
IC50 [36]: 2000 nM

SFSTTINYTL
IC50 [37]: 800 nM

NRTQGGLRA
Kd [38]: 136 nM

RLDARLQVL
Kd [39]: 82 nM
Kd [40]: 7.4 nM
Kd [41]: 1.1 nM
Kd [42]: ≥ 20000 nM
Kd [43]: ≥ 20000 nM
Kd [44]: 1020 nM
Kd [45]: ≥ 20000 nM
Kd [46]: ≥ 20000 nM
Kd [47]: ≥ 20000 nM
Kd [48]: ≥ 20000 nM
Kd [49]: ≥ 20000 nM
Kd [50]: ≥ 20000 nM
Kd [51]: ≥ 20000 nM
Kd [52]: ≥ 20000 nM

HLSSSQLQSL
Kd [53]: ≤ 0.1 nM

FRDRGQHVL
Kd [30, 57]: ≥ 5000 nM
Kd [31, 57]: 0.4 nM
Kd [32, 57]: ≥ 5000 nM
Kd [33, 57]: ≥ 5000 nM
Kd [54]: ≥ 5000 nM

YLQPRTFLL
Kd [55]: 75 nM
